Target: T1, polypeptide 2C01 (human rhinovirus (W10 (HRV-C15)))
T1 construct: synthetic peptide coated on the ELISA plate; also called 2C (aa 151-163)
T1 peptide: YSLPPDPKYFDGY
Assay: indirect ELISA, peptide coated 1 ug/well, 9A5 at 2 ug/mL

B1: monoclonal antibody 9A5 (antibody, V domains shown)
VH: EVQLVESGGDLVKPGGSLKLSCAASGFTFSIYGMSWVRQTPDKRLEWVATISSAGIYTYYPDSVKGRFTISRDNAKNTLYLQMSSLKSEDTAMYYCARHGYGLFDVWGAGTTVTVSS
VL: not shown
notes: also called anti-C149-2C01 mouse monoclonal antibody
Question: Does B1 bind?
Answer: Result: binds

Source: patent US20240350615A1 (BEIJING WANTAI BIOLOGICAL PHARMACY ENTERPRISE, published 2024)
